Assay results taken from US20040018971A1 (published 2004).
Blank lines part the entries; values can stand above or below the binder they belong to.

Experiments:
[1] = target: T1, HLA-A*0201 (purified HLA class I molecule) (human); test: competition with 125I-labelled standard peptide for purified HLA, gel filtration
T1 construct: also called HLA-A2.1

HLA-A*0301 = target: T2, HLA-A*0301 (human); test: inhibition of 125I-labelled probe peptide binding to purified HLA-A*0301, gel filtration; ratio to standard peptide 941.12 ([..], 11 nM)
T2 construct: also called HLA-A3

HLA-A*1101 [2] = target: HLA-A*1101 (human); test: competition with 125I-labelled probe peptide on purified HLA-A*1101, relative to standard peptide 940.06
HLA-A*1101 [3] = target: HLA-A*1101 (human); test: competition with 125I-labelled probe peptide for purified HLA-A*1101, gel filtration; standard peptide 940.06 [..] (6.0 nM)
HLA-B*5401 = HLA-B*5401 (human); test: competition vs 125I-labelled probe peptide, purified HLA, gel filtration
HLA-B*0702 = HLA-B*0702 (human); test: as above
HLA-B*5101 = HLA-B*5101 (human); test: as above

B1: HER2/neu peptide, position 1119, 10 amino acids (peptide)
peptide: PLPSETDGYV
notes: Synthetic peptide; also called HER2/neu 1119-1128
relative binding ratio (IC50 of standard peptide / IC50 of test peptide) [1]: 0.0001 ratio

Binder: RLVHRDLAAR (Synthetic peptide) [HER2/neu peptide, position 840, 10 amino acids]
relative binding ratio (HLA-A*1101 [2]): 0.0001 ratio (IC50 of standard peptide / IC50 of test peptide)

Binder: SMPNPEGRY (Synthetic peptide) [HER2/neu peptide, position 281, 9 amino acids]
relative binding ratio (HLA-A*1101 [2]): 0.0003 ratio (IC50 of standard peptide / IC50 of test peptide)

Binder: VLQGLPREY (Synthetic peptide) [HER2/neu peptide, position 546, 9 amino acids]
relative binding ratio (HLA-A*1101 [2]): 0.0002 ratio (IC50 of standard peptide / IC50 of test peptide)

B2: HER2/neu peptide, position 828, 9 amino acids (peptide)
peptide: QIAKGMSYL
notes: Synthetic peptide; also called HER2/neu 828-836
relative binding ratio (IC50 of standard peptide / IC50 of test peptide) [1]: 0.0006 ratio

Binder: PLTSIISAVV (Synthetic peptide) [HER2/neu peptide, position 650, 10 amino acids]
relative binding ratio (IC50 of standard peptide / IC50 of test peptide) [1]: 0.0003 ratio

Binder: GAMPNQAQMR [HER2/neu peptide, position 704, 10 amino acids]
relative binding ratio (IC50 of standard peptide / IC50 of test peptide) (HLA-A*0301): -0.0002

B3: HER2/neu peptide, position 160, 9 amino acids (peptide)
peptide: QLCYQDTIL
notes: Synthetic peptide; also called HER2/neu 160-168
relative binding ratio (IC50 of standard peptide / IC50 of test peptide) [1]: 0.0001 ratio

B4: Her2/neu.1174.F1I8 (peptide)
peptide: FPGKNGVI
notes: 8-mer analog of the HER2/neu peptide starting at position 1174
IC50 (HLA-B*5401): 385 nM
IC50 (HLA-B*0702): 458 nM
IC50 (HLA-B*5101): 177 nM

Binder: RILKETELR (Synthetic peptide) [HER2/neu peptide, position 713, 9 amino acids]
relative binding ratio (HLA-A*1101 [2]): 0.0038 ratio (IC50 of standard peptide / IC50 of test peptide)

Binder: LSPGKNGVVK [HER2/neu peptide, position 1173, 10 amino acids]
relative binding ratio (HLA-A*1101 [3]): 0.0003 ratio (IC50 of standard peptide / IC50 of test peptide)

Binder: GLGISWLGLR [HER2/neu peptide, position 447, 10 amino acids]
relative binding ratio (IC50 of standard peptide / IC50 of test peptide) (HLA-A*0301): 0.0037

Binder: RLLDIDETEY (Synthetic peptide) [HER2/neu peptide, position 868, 10 amino acids]
relative binding ratio (HLA-A*1101 [2]): 0.0001 ratio (IC50 of standard peptide / IC50 of test peptide)

Binder: GSGAFGTVYK [HER2/neu peptide, position 727, 10 amino acids]
relative binding ratio (IC50 of standard peptide / IC50 of test peptide) (HLA-A*0301): 0.066

Binder: GMSYLEDVR [HER2/neu peptide, position 832, 9 amino acids]
relative binding ratio (IC50 of standard peptide / IC50 of test peptide) (HLA-A*0301): -0.0002

Binder: KVLRENTSPK [HER2/neu peptide, position 753, 10 amino acids]
relative binding ratio (HLA-A*1101 [3]): 0.22 ratio (IC50 of standard peptide / IC50 of test peptide)

Binder: SVFQNLQVIR (Synthetic peptide) [HER2/neu peptide, position 423, 10 amino acids]
relative binding ratio (HLA-A*1101 [2]): 0.075 ratio (IC50 of standard peptide / IC50 of test peptide)

Binder: GLPREYVNAR [HER2/neu peptide, position 549, 10 amino acids]
relative binding ratio (IC50 of standard peptide / IC50 of test peptide) (HLA-A*0301): 0.0002

B8: HER2/neu peptide, position printed as 515 (read as 545), 10 amino acids (peptide)
peptide: RVLQGLPREY
notes: The row follows '545; 8 then 545; 10 at the same point
relative binding ratio (HLA-A*1101 [2]): 0.005 ratio (IC50 of standard peptide / IC50 of test peptide)

Binder: LIKRRQQKIR [HER2/neu peptide, position 674, 10 amino acids]
relative binding ratio (HLA-A*1101 [3]): 0.0001 ratio (IC50 of standard peptide / IC50 of test peptide)

Binder: KIRKYTMR [HER2/neu peptide, position 681, 8 amino acids]
relative binding ratio (HLA-A*1101 [3]): 0.0004 ratio (IC50 of standard peptide / IC50 of test peptide)

Binder: SSEDCQSLTR (Synthetic peptide) [HER2/neu peptide, position 208, 10 amino acids]
relative binding ratio (HLA-A*1101 [2]): 0.002 ratio (IC50 of standard peptide / IC50 of test peptide)

Binder: RGTQLFEDNY (Synthetic peptide) [HER2/neu peptide, position 103, 10 amino acids]
relative binding ratio (HLA-A*1101 [2]): 0.0015 ratio (IC50 of standard peptide / IC50 of test peptide)

Binder: KIPVAIKVLR [HER2/neu peptide, position 747, 10 amino acids]
relative binding ratio (HLA-A*1101 [3]): 0.0099 ratio (IC50 of standard peptide / IC50 of test peptide)

Binder: VARCPSGVK (Synthetic peptide) [HER2/neu peptide, position 597, 9 amino acids]
relative binding ratio (HLA-A*1101 [2]): -0.0002 ratio (IC50 of standard peptide / IC50 of test peptide)

Binder: GMEHLREVR [HER2/neu peptide, position 346, 9 amino acids]
relative binding ratio (IC50 of standard peptide / IC50 of test peptide) (HLA-A*0301): -0.0002

Binder: GGAVENPEY [HER2/neu peptide, position 1188, 9 amino acids]
relative binding ratio (IC50 of standard peptide / IC50 of test peptide) (HLA-A*0301): 0.0003

Binder: GVVFGILIK [HER2/neu peptide, position 668, 9 amino acids]
relative binding ratio (IC50 of standard peptide / IC50 of test peptide) (HLA-A*0301): 0.0047

B10: HER2/neu peptide, position 402, 10 amino acids (peptide)
peptide: TLEEITGYLY
notes: Synthetic peptide; also called Her2/neu.402
relative binding ratio (HLA-A*1101 [2]): 0.0001 ratio (IC50 of standard peptide / IC50 of test peptide)

Binder: HSCVDLDDK [HER2/neu peptide, position 632, 9 amino acids]
relative binding ratio (HLA-A*1101 [3]): 0.0007 ratio (IC50 of standard peptide / IC50 of test peptide)

Binder: LACHQLCAR [HER2/neu peptide, position 509, 9 amino acids]
relative binding ratio (HLA-A*1101 [3]): 0.0003 ratio (IC50 of standard peptide / IC50 of test peptide)

B11: HER2/neu peptide, position 711, 10 amino acids (peptide)
peptide: QMRILKETEL
notes: Synthetic peptide; also called HER2/neu 711-720
relative binding ratio (IC50 of standard peptide / IC50 of test peptide) [1]: 0.0001 ratio

Binder: LIQRNPQLCY [HER2/neu peptide, position 154, 10 amino acids]
relative binding ratio (HLA-A*1101 [3]): 0.0002 ratio (IC50 of standard peptide / IC50 of test peptide)

Binder: LGSGAFGTVY [HER2/neu peptide, position 726, 10 amino acids]
relative binding ratio (HLA-A*1101 [3]): 0.0003 ratio (IC50 of standard peptide / IC50 of test peptide)

Binder: LCYQDTILWK [HER2/neu peptide, position 161, 10 amino acids]
relative binding ratio (HLA-A*1101 [3]): 0.0063 ratio (IC50 of standard peptide / IC50 of test peptide)

Next, values leading:

relative binding ratio (IC50 of standard peptide / IC50 of test peptide) (HLA-A*0301): 0.0028
Binder: GSGAFGTVY [HER2/neu peptide, position 727, 9 amino acids]

relative binding ratio (HLA-A*1101 [2]): 0.0072 ratio (IC50 of standard peptide / IC50 of test peptide)
Binder: TVPWDQLFR (Synthetic peptide) [HER2/neu peptide, position 479, 9 amino acids]

relative binding ratio (IC50 of standard peptide / IC50 of test peptide) (HLA-A*0301): 0.0003
Binder: HADGGKVPIK [HER2/neu peptide, position 878, 10 amino acids]

relative binding ratio (IC50 of standard peptide / IC50 of test peptide) (HLA-A*0301): 0.015
Binder: GILIKRRQQK [HER2/neu peptide, position 672, 10 amino acids]

relative binding ratio (IC50 of standard peptide / IC50 of test peptide) [1]: 0.0008 ratio
Binder: QLRSLTEIL (Synthetic peptide) [HER2/neu peptide, position 141, 9 amino acids]

relative binding ratio (HLA-A*1101 [2]): 0.0007 ratio (IC50 of standard peptide / IC50 of test peptide)
Binder: VLIAHNQVR (Synthetic peptide) [HER2/neu peptide, position 84, 9 amino acids]

relative binding ratio (HLA-A*1101 [3]): 0.0003 ratio (IC50 of standard peptide / IC50 of test peptide)
Binder: LALTLIDTNR [HER2/neu peptide, position 179, 10 amino acids]

relative binding ratio (HLA-A*1101 [3]): 0.0002 ratio (IC50 of standard peptide / IC50 of test peptide)
Binder: HLDMLRHLY (also called Her2/neu.42) [HER2/neu peptide, position 42, 9 amino acids]

relative binding ratio (HLA-A*1101 [2]): 0.0072 ratio (IC50 of standard peptide / IC50 of test peptide)
Binder: VLVKSPNHVK (Synthetic peptide) [HER2/neu peptide, position 851, 10 amino acids]

relative binding ratio (HLA-A*1101 [2]): 0.11 ratio (IC50 of standard peptide / IC50 of test peptide)
Binder: RILKETELRK (Synthetic peptide) [HER2/neu peptide, position 713, 10 amino acids]

relative binding ratio (HLA-A*1101 [2]): 3.6 ratio (IC50 of standard peptide / IC50 of test peptide)
B5: HER2/neu peptide, position 166, 10 amino acids (peptide)
peptide: TILWKDIFHK
notes: Synthetic peptide; also called Her2/neu.166

relative binding ratio (IC50 of standard peptide / IC50 of test peptide) (HLA-A*0301): 0.011
Binder: GLACHQLCAR [HER2/neu peptide, position 508, 10 amino acids]

relative binding ratio (HLA-A*1101 [2]): 0.0005 ratio (IC50 of standard peptide / IC50 of test peptide)
Binder: TLIDTNRSR (Synthetic peptide) [HER2/neu peptide, position 182, 9 amino acids]

relative binding ratio (IC50 of standard peptide / IC50 of test peptide) [1]: 0.0001 ratio
Binder: PVTGASPGGL (Synthetic peptide) [HER2/neu peptide, position 128, 10 amino acids]

relative binding ratio (HLA-A*1101 [3]): 0.14 ratio (IC50 of standard peptide / IC50 of test peptide)
Binder: LLNWCMQIAK [HER2/neu peptide, position 822, 10 amino acids]

relative binding ratio (HLA-A*1101 [3]): 0.0003 ratio (IC50 of standard peptide / IC50 of test peptide)
Binder: LMTFGAKPY [HER2/neu peptide, position 915, 9 amino acids]

relative binding ratio (IC50 of standard peptide / IC50 of test peptide) [1]: 0.0001 ratio
B6: HER2/neu peptide, position 999, 10 amino acids (peptide)
peptide: PLDSTFYRSL
notes: Synthetic peptide; also called HER2/neu 999-1008

relative binding ratio (IC50 of standard peptide / IC50 of test peptide) [1]: 0.0002 ratio
B7: HER2/neu peptide, position 627, 9 amino acids (peptide)
peptide: PINCTHSCV
notes: Synthetic peptide; also called HER2/neu 627-635

relative binding ratio (IC50 of standard peptide / IC50 of test peptide) (HLA-A*0301): 0.021
Binder: GTQRCEKCSK [HER2/neu peptide, position 327, 10 amino acids]

relative binding ratio (IC50 of standard peptide / IC50 of test peptide) [1]: 0.0002 ratio
Binder: PLQPEQLQV (Synthetic peptide) [HER2/neu peptide, position 391, 9 amino acids]

relative binding ratio (HLA-A*1101 [3]): 0.072 ratio (IC50 of standard peptide / IC50 of test peptide)
Binder: HTVPWDQLFR (also called Her2/neu.478) [HER2/neu peptide, position 478, 10 amino acids]

relative binding ratio (HLA-A*1101 [2]): 0.12 ratio (IC50 of standard peptide / IC50 of test peptide)
Binder: TIDVYMIMVK (Synthetic peptide) [HER2/neu peptide, position 948, 10 amino acids]

relative binding ratio (IC50 of standard peptide / IC50 of test peptide) (HLA-A*0301): 0.001
Binder: GVGSPYVSR [HER2/neu peptide, position 776, 9 amino acids]

relative binding ratio (IC50 of standard peptide / IC50 of test peptide) (HLA-A*0301): 0.0003
Binder: GASCVTACPY [HER2/neu peptide, position 292, 10 amino acids]

relative binding ratio (IC50 of standard peptide / IC50 of test peptide) (HLA-A*0301): 0.0002
Binder: GAGGMVHHR [HER2/neu peptide, position 1038, 9 amino acids]

relative binding ratio (IC50 of standard peptide / IC50 of test peptide) [1]: 0.0015 ratio
Binder: PLTSIISAV (Synthetic peptide) [HER2/neu peptide, position 650, 9 amino acids]

relative binding ratio (IC50 of standard peptide / IC50 of test peptide) [1]: 0.0062 ratio
B9: HER2/neu peptide, position 484, 9 amino acids (peptide)
peptide: QLFRNPHQA
notes: Synthetic peptide; also called HER2/neu 484-492

relative binding ratio (HLA-A*1101 [3]): 0.0023 ratio (IC50 of standard peptide / IC50 of test peptide)
Binder: ILKETELRK [HER2/neu peptide, position 714, 9 amino acids]

relative binding ratio (HLA-A*1101 [3]): 0.0097 ratio (IC50 of standard peptide / IC50 of test peptide)
Binder: ILIKRRQQK [HER2/neu peptide, position 673, 9 amino acids]

relative binding ratio (HLA-A*1101 [3]): 0.31 ratio (IC50 of standard peptide / IC50 of test peptide)
Binder: ILWKDIFHK (also called Her2/neu.167) [HER2/neu peptide, position 167, 9 amino acids]
